Assay: protease stability score; higher = more stable; yeast display proteolysis, trypsin and chymotrypsin;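 also: log10 excess protease needed over predicted unfolded state with 0 meaning unfolded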

DEEVVRQIEDNLNAQRRNDHEKLKENMDPNATVNVGDKQIHGMSQFAQHVRDMFRHIRRSIKDFRIEVRPNHANVDVKFEVNINGKPESMSANVSVRVTNGTVQEMTIRVDPEHVKRIRR
protease stability score: 0.816

DEEWEETMTRLVKTGDFQSLVRLAPEDVKYVVGEKRIHGREHASEFAKKLTEQIDRIQVKEMHVSGDRVRADFELEFNGRKLKAVLVVKIHGDKVREVMIEVTDEHDEDILREIDD
protease stability score: 0.8

DEEWLHRFLQQYRSGDEDQMVRNMDKDVKIDVGDKEIHGREEAERWYRELKKRIDHFEVDHIKIQGESATADVRMNVNGRDVKFTLHVEAHNGRVKYVRLQATSSEVKTRMDRALG
protease stability score: 0.198

DEEYAHQLREFLEAWVSGDENRAKQLADPNARVNVGEERISGMDEFMKEVRKRKKEMRIEVKHIKIEVRPNKAKADVKFRVNFNGTPFDVNQKWQAHWHNGKLHSVTVNMDEDQKRFEKG
protease stability score: 0.451

DEEYNKKVQDIFNTNDPSQFKSLIDPNARMEVGDHVFHGRHNIVKHLKKFRDQVDHFEIKEIDVKGNKLSMEFVAVVNGKRVRATMSQQAHNGRMQEIRIKATSEEDKKILKEVTS
protease stability score: -0.048

DEHAARVFLELLKAAETGDEKRLKRLADPNARIQVGDKHVDGMDEATKKIVKTWEKSRIRFEIKSYDVDGEKVRVNMQMTNRDNGEPDSKNAHFTVEVRNGHIKHADLQHHG
protease stability score: -0.223

DEHAARVQHEIQKVQETGDEERVRELVDPNVKIQVGDKTIHGMDEYLTRVKKRMDELRFSVTWRHYDVHNGQVNVKVEFTKDHNGKPQRDVMVMKFHIHNGRVQFLSMEKDQ
protease stability score: 0.843

DEHADTIVKKYLDAIKSNNPEDVKENVDKDVDVEVGDTSWHGRDEVVTRVQNELDEIRIDMKVDEVNNQGNHVEVKMHMTLDINGKPATVDWDVKFDIQNGRIQSIRLRPDEENRKQKEK
protease stability score: 0.057

DEHAEDLFRQLKEAEDTGDEDHFRRLVDPNAHFEIGNKHVHGREERATQMKQQKKQIRVEIKSMDYRVDGEKVEARVDATYNFNGRPDRMHIVIDIEFHNGRVTNARYRLDEEDLKRVEK
protease stability score: 0.308

DEHAEHIATEWWKAIRTNNPERARELVDKDVKINVGDKRIHGREQVDREIKRLNNTSRQDYKSMHMTVKGDKVRVEMNKRQEDNGNPRSKNFEVVFDFHNGRIRHISVHETK
protease stability score: -0.381

DEHAERIFRKWMTIYKKGDPKKVKELLDPNARVRIGDKRIRGRETAAEQQSTRADEMRNDVKVKHLEVNGDDLVVRIKFTSEENGNPKDQEAKFDWNIHNGKIRSQTQDIKG
protease stability score: -0.017

DEHAFKRIDEMLTAFQKNDPNKIQEYMDENVKVQYGDKSVHGRDEIAKSKQETREHLRLEIRIENYDVNGDTIHVHAKVIFNVNGDPLKFEVDIVARLHNGKIKSMQLQFSHEQQKKVES
protease stability score: 0.682

DEHAHRQFKHYLDALKENNEEDLKKQMDKDAEAKYGNQELHGRDDAARHLKRELEEIRVDITEYRIRNQGNNIEAHVRFVVKHNGQPSKMTVLITASADENHMRTIEFDEKK
protease stability score: 0.248

DEHAIKLLKKIYEAWEEGDPDEARENADPNARYIIGDKTLHGMENIVKEWQRRYDESRIDYKHIDVQDDNGRANADVRYVVQHNGRPERKTMTVIVEVHNGRVTQIHFQDTQ
protease stability score: -0.01

DEHAKDVFDTLREARKRGDEDTMKRQVDPNAKAQVGDKTYHGSDEIARRLTEENRESRVEYHTMSVEIQGDHVVVRFRARYEHNGQPSHFHAVEVVKADNGQIVFLVLQETK
protease stability score: 0.06

DEHAKELAKEFMEAWTKGDPDKAATLADPNVRANVGEFNVHGREDAHRAVDRFRRQMHVELDIRSMRVQGNKVQVDVSVTVTHNGRPHSNRYVVLIIFHNGRIRSVHRRREG
protease stability score: 0.176

DEHAKHVVETYMTAQKHNNPKDAQKMVDPNARFSVGDKEVQGSEQLDKEIQRDNKEIREHVESMSVDVDGDKAHVDRTVKFQRNGKPHKLKVHLNFRLTNGRIKTVQVDEDG
protease stability score: -0.308

DEHAKKLAERILEAISNNNEEDIQKNIDPNAKIQVGDRQVHGREDLQKQYQDFRHHARIQNRLRSVRADGDHVTLEIEVVFKVNGNPVNNTVNMSMVIENGRVKMREVQVPEEVQDTIDQ
protease stability score: 0.075

DEHAKKRLEEWLRNRQQGDDERLVQMADPNVRIEYGDKSFKGRDDVREWAQKESKSMDLQLKSVDLKVSGDKVDAKITFTQDENGKPDHATMNLVMKQDNGHIKVLRYEVTK
protease stability score: 0.084

DEHAKRVLHEWLRAIQTGDPDKAMRLADKDARIRVGDKVISGREQLHKWVETLKKHIKVQIEDFNIEVHGEELELNIVATLNDNGEPQRSRWVVTVIIRNGEMKSLTQRDDS
protease stability score: 0.009

DEHAKRVVEKAWKALDTGDPKTMEDMLDPNARQRYGDTSVHGRENIIHKLEKDSKEIRFKIKIDNITVHGDKIDVRMLVTERRDGQPRQTHRVATFRIHNGRLEEADFQKDG
protease stability score: -0.073

DEHAMERIDDFFQALRNGDPKNLKEQIDPNVSLHYGDKEVTGKDRAAKEMAQIFRHIRLEFDIKSVSAHNGRVTVNAEVVDEENGRPHSRRVQNNAVWHNGVIQSFHVKETK
protease stability score: -0.402

DEHANETVKRILRDIRHNNPHEIRKNMDPNAKVVIGDKTIHGREEAARQLKREMHEIRVEVKHIDMKVHDGRVNVNFDVVLDSNGNPQRQSYRMVVRVHNGTVHYLSKSDTR
protease stability score: -0.041

DEHAQKLLEKEKDALERNNPDHFRDMVDKDARLRVGNKVIHGREQVSEDVERKRDEMRYRFEIKHVQVHNGQIDADVVQVVNVNGHPVRNKYRITVNVTNGRAKQVTVRIDEDTLRKMDR
protease stability score: -0.027

DEHAQKRASQLVDKQNTGNPESIANYMDPNAKVQVGENRVHGREEIETLVKQKNKEARYEYNVESMSIQGDKLTMHLHAVVEINGQPLEFKVRVDFTFHNGRIRDVYYQLPEELLEELKR
protease stability score: 0.165

DEHARDRATQMIEAIHNGDPDTLQELLDEDAHIQIGDKEIHGHDQASRELRRRREEQNVDVRVRDLKVTGERVKIDVEIRVSHNGQPTETKVTIDVEAHNGKIKDLRMRTSQ
protease stability score: 0.15

DEHARHLVSELLRALESGDPDQLVKMADPNVEAQIGDKRYTGRSHMKKMQEDLKREMRYHVTDFHVEVNGNTAVADVDASVEHNGQPRRHRYRIVITFENGRAKDFSIQRDK
protease stability score: 1.12

DEHARKQFEDLIRALSTGDPERVAQLVDPNAHFQVGDQTIHGREHLMEDVKRRRDKMRMELHVDHVKVDENHLDAIIRVVQDTNGDPDHKKYRLVAQWQNGRVNNQEMQETS
protease stability score: 0.541

DEHARRLVKKFIEAMKHGDPDKLMKLADPNVKFDIGDHQFKGSHEANKWLERMVRHMRFSLKVDSVKAHNGRVEVDAVFTFEVNGKPDQQRFTLDFHFNNGRVQNLTWDVDPRDWRKQLK
protease stability score: 0.73

DEHARSVMRQFVHALNTGDPDEASRQVDKNVKATYGDKSVHGRESVKEWLEKLVKRMRVEVDLKTVHAQGDTVTAKAHLTAEVNGRPFKVDVHIEATVQNGKIKELVVDFDEHFTEQVES
protease stability score: 2.56

DEHAVEVAKKIVEAWKDGDPKRFNELFDPNAQLRVGDHHFHGSHEADRHMQTINKEQRVRYKNVRVESRPGRVEVRVDMEKTHDGRPRRSEFTVQINVHDGQVKKLTVQEDG
protease stability score: 0.239

DEHAVRRLQEFARVLERGDESKAEQYLDPEVRITVGDREINGMKTFNNFLQEVSRQMRFSLQHVEARARNGKARIIMHFQVDHNGNPEQQRIDITASLHNGRMKRMHMRTDR
protease stability score: 0.031

DEHDAAKRAEEAVRRANSGDEKDALRLIDPNATVQVGDKNYHGREQVRRVVEELTERFDHIQFKHVSLQGNRVTARADATHNGRTEKMIFIVRAHNGRVKSWKIESS
protease stability score: -0.093

DEHDAESIQSVLTNGNFESMDELADKDVHVDVGNKRYHGQEQFRTLQTHYKNRVDHVDMHRLTQDGEKINADMRAVVNGKDFQFELVIKVHNGRIRRLQLNFTSDSQDKEHEERLR
protease stability score: 0.496

DEHDEARKFADKFVKALRDGDETLVNKLVDPNAKFVIGDKDYHGRKAASTLMHEWKNRVDEQEVKIKRISVRNGRANVDVEMVMNVDGHRVHFRVIIYAERRDGRLRVVRIEAR
protease stability score: 1.52

DEHDEKIVQTFLTALRTGDEEELQKNMDPNVSVHIGDQEVNGREEIARQLKKEQDEMRVDIRRYHISAHNGRVEVRIKFTAEVNGKPNRFTVVYDFVLHNGHIEKMHVKMSREDKKKKKQ
protease stability score: -0.189

DEHDITKIMEEIAKVIRNNDEKRLVEMADPNVRVIVGDKEFQGRDEMEKFNHEYSRQADKVQVVSVNVNGNRITIEVTANINGRDLQFVVVFEIKNGTIENVHVNFTNPEVLRQAES
protease stability score: 1.19

DEHDLDKWRQVMEHNDFDKLVRLADPNVKIVVGDQEYHGREQYKELMDKLEHHVDHMELHSVSITNGEVHARLTVIINGKSIEYVFKFVVDNGKLKKLRIQFTDPEDEKIWKRAMS
protease stability score: 1.7

DEHDMAHKFFHDLVEAAKTGDRDKIKRLADPNVKIEYGDKRLHGHKDYANFIQKIVERVDSVNFQLQSVSVTGDKVRMIYTLDVVENGQKRTDRLQIEAQIHNGDIIAKRVVEG
protease stability score: 0.873

DEHDTEVAERALNDLKTGDPDKVTEMADKHVKYVVGEKRIQGRETYAKTVEKERDEIRVDWSVHNIQVHNGKLDVSAEFRFTVNGQPNSDSARWEFTLRNGKIQEVVMKVSDRFLKQMRS
protease stability score: -0.15

DEHDVRELLKALTTGNEDDMRKMLDKDVTANIGNFRVKGREQQLTLIRRMLERADHLSVTSFSSHNGNVEVDVQVTVDGRRIRYVIRAQAHNGKVNSVRMDVTDHSVEQTLRHLHS
protease stability score: 1.36

DEHEAEKLLKLLTENDPRQFQNEADKNVRVFYGDKEVHGREQFHTWVQRVRERVDTLEIKRVETRPGRLEVKFRVNVNGQTLEMVLVIVVHNGKIQDVKLHARDHDVMKRWKEAVS
protease stability score: 0.82

DEHEAKKMSEMFKNLATGNPDTAKRQFDKDASVQIGDKVVHGREHLSRTLKRRRDQIRVVVEDVKVTVNGDKAEIQVIFSWEHNGEPRRSVYFATVHWHNGNVKKVTVTEQS
protease stability score: -0.121

DEHEEAKKVADRMIEVEKTGDEDSLTENFDPNVRFKIGDRTYHGEKDMQQLLREIKERADHIDIDVKHVTAHNGRADIDRVRVIQVDGQRRKQRIRMDLTFHNGRLHLKQMKVD
protease stability score: 0.31

DEHEKMKKHMTEWRSAFKRGDPDTVRKLADKDVDVEVGDKVLHGREQVANHVVDLARTVDHVDIRIETMEVNGDHFVLVMSAVFDVNGKRDERKFVLVAKLHNGTIKVKNMKRS
protease stability score: 0.07

DEHEKQKKAKDAADLIRHNNPERVAELFDEDARVRVGDHTYHGREHIVRVLQTLVDQIDHMQLTDLDVHGETLRLHIVMQINGKKVDMQLDIELKNGKMKRMRFDPDRVRDVQK
protease stability score: 0.466

DEHELNKFEQLLRDRETGDEEHLKRLMDKDARVNVGDKNVHGREEAANQQVERVKRMDVRILHMDLKDNNGKINADITRIIHTNGHPDKHQFVLTVDVKNGRVQNIRQDDTS
protease stability score: -0.284

DEHELREILDKANEAWKRNDPDEMVKQADKDVEVKIGDKDFHGREEAHEAMKELHDRADHISIRDYDASGNKARIHMYIVVNGRRVDFVVIIVVRNGRIQKIELNVRDEKAKSNLKQ
protease stability score: 1.09

DEHELRRQADDFWHAVRTGDEKRIVELLDPNAHAVVGDKRYHGEKQIRQLVRSMREQVDTFRVSSITVSGDDIEIDIVLNVNGREFRATIVLRQHNGKVTELKLHPNINRALES
protease stability score: 1.28

DEHEMKKVADQIVDILRTGDQDRFRDLADPNVRVSVGDKTVHGRHQAQQQVKRLKDQVDHVQLKDMKIHGNTVVVKAHVEINGNTTDRDVKFELHNGRVSHLTIDPEAQKVMDT
protease stability score: 0.273
